# ± gives the standard error. Fewer inactive variants are shown than the library holds.
# B1: glmS ribozyme (parent)
# chain: AUAAAAGCGCCAGAACUACAGAAAUGUAGUUGACGAGGAGGAGGUUUAUCGAAUUUUCGGCGGAUGCCUCCAAA
# Variants of: B1
# Test: self-cleavage kobs at 2500 uM GlcN6P; higher = faster cleavage; RNA array
# Conditions: with glucosamine-6-phosphate
# In short: (§1)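 Barcoded ribozyme variants on sequenced MiSeq chips were transcribed in situ by E. coli RNA polymerase and followed at 37 °C through a hybridised Cy3 probe. Glucosamine-6-phosphate at 40 μM to 10 mM in HEPES/KCl/Mg(OAc)2 buffer was flowed in, and tiles were imaged over ~14 h. Signals were normalised to baseline and to non-cleaving reference variants, and per-tile medians were fit to one- or two-exponential decays to give kobs. Weighted Michaelis–Menten fits across concentrations gave kcat and KM.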
row,Variant,self-cleavage kobs at 2500 uM GlcN6P [s⁻¹]
1,AUAAAAGCGCCAGACCUACAGAAAUGUAGUUGACGAGGAGGAGGUUUAUCGAAUUUUCGGCGGCUGCUUCCAAA [A15C A64C C68U],< 1e-05
2,AUAAAAGCGCCAGAACUACAGAAAUGUAGUUGACGAGGAGGAGGUUGAUCGAAUUUUAUGCGGAUGCCUGCAAA [U47G C58A G59U C70G],0.000334 ± 9.7e-05
3,AUAAAAGCGCCAUAACUACAGAAAUGUAGUUGACGAGGAGGAGGUUUCUCGAAUUUUCGGAGGAUGCCUCCAAA [G13U A48C C61A],< 1e-05
4,AUAAAAGCGCCAGAAUUACAGAAAUGUAGUUGAGGAGGAGGAGGUUUAUGGAAUUUUCGGCGGAUGCCUCCAAA [C16U C34G C50G],0.00012 ± 5e-05
5,AUAAAAUCGCCAGAACUACAGAAAUGUAGUUAACGAGGAGGAGGUUUGUCGAAAUUUCGGCGGAUGCCUCCAAA [G7U G32A A48G U54A],< 1e-05
6,AUAAAAGCGCCAGAACUACAGAAAUGUAGUUGACGAGGAGGACGUUUGUCGAAUUUUCGGCGGAUGCCUCCAAA [G43C A48G],< 1e-05
7,AUAAAAGCGCCAGCACUACAGAAAUGUACUUGACGAGGAGGAGGUUUAUCGAAUUUUCGGCGGGUGCCUCCAAA [A14C G29C A64G],5.47e-05 ± 2e-05
8,AUAAAAGGGCCAGAACUACAGAAAUGUAGUUGACAAGGAGGACGUUUAUCGAAUUUUCGGCGGAUGCCGCCAAA [C8G G35A G43C U69G],< 1e-05
9,AUAAAAGCGCCAGAACUACAGAAAUGUAGUUGACGAUUAGGAGGUUUACCGAAUUUUCAGCGGAUGCCUCCAAA [G37U G38U U49C G59A],< 1e-05
10,AUAAAAGCGGCAGAACUACAGAAAUGUAGUUGACGAGGAGAAGGUUUAUCGAAUUUUCGGCGGAUGCCUCCAAA [C10G G41A],< 1e-05
11,AUAAAAGCGCCAGAAGUACAGAAAUGUAGUUGACGAGGAGGAAGUUUUUCGAAUUUUCGGCGGAUGCCUCCAAA [C16G G43A A48U],< 1e-05
12,AUAAAAGAGCCCGAACUACAGAAAUGUAGUUGACGUGGAGGAGGUUUAUCGAAUUUUCUGCGGAUGCCUCCAAA [C8A A12C A36U G59U],< 1e-05
13,AUAAAAUCGCCAGAAGUACAGAAAUGUAGUUGACGAGGAGGAGGUUUUUCGAAUUUUCGGCGGAUGCCUCCAAA [G7U C16G A48U],< 1e-05
14,AUAAAAGUGCCAGAACUACAGAAAUGUAGUUGACGAGGAGGAGGUUUAUCUAAUUUCAGGCGGAUGCCUCCAAA [C8U G51U U57C C58A],< 1e-05
15,AUAAAAGCGCCCGAACUACAGAAAUGUAGUUGACGAGGAGGAGGUUUAUCGAAUUAUGGGCGGAUGCCUCCAAA [A12C U56A C58G],0.00043 ± 8.1e-05
16,AUAAAAGCGGCACAACUACAGAAAUGUAGUUGACGAGGAGGUGGUUUAUCGCAUUUUCGGCGGAUGCCUCCAAA [C10G G13C A42U A52C],< 1e-05
17,AUAAAAGCUCCAGAACUACAGAAAUGUAGAUGACGAGAACGAGGUUUAUCGAAUUAUCGGCGGAUGCCUACAAA [G9U U30A G38A G40C U56A C70A],< 1e-05

row,Variant,self-cleavage kobs at 2500 uM GlcN6P [s⁻¹]
1,AUAAAACCGCCAGAACUACAGAAAUGUAAUUGACGAGGAGGAGGUUUAUCGAAUUUUCGGCUGAUGCCUCCAAA [G7C G29A G62U],< 1e-05
2,AUAAAGGCGCCAGAACUACAGAAAUGUAGUUGACGAGGAGGAGGUUUAUCGAAUUUUCUGUGGAUGCCUCCAAA [A6G G59U C61U],< 1e-05
3,AUAAAAGAGCCAGAACUACAGAAAUGUAGUUGACGAGGAGGAGGUUUAUCGAAUUUUCCGCGGAUGGCUCCAAA [C8A G59C C67G],< 1e-05
4,AUAAAAGCGCCAGAACUACAGAAAUGUAGUUAACGAGGAGGAGGUUUAUCGAAUUUUCGGCGGAUGCCCCCAAA [G32A U69C],0.000191 ± 7.8e-05
5,AUAAAAGCGCCAGAACUACAGAAAUGUAGUUGACGAGGAGGAGGGUUUUCGAAUCUUCGGCGGAUGCCUCCAAA [U45G A48U U55C],8.04e-05 ± 2.8e-05
6,AUAAACGCGCCAGAACUACAGAAAUGUAGUAGACGAGGAGGAGGUUUCUCGAAUUUUCGGCGGAUGCCUCCAAA [A6C U31A A48C],< 1e-05
7,AUAAAAGCGCCAGAACUACAGAAAUGUAGAUGACGAGGAGGAGGUUCAUCGAAUUUUCGGCGGAUGCCUCCAAA [U30A U47C],0.000476 ± 9.7e-05
8,AUAAAAGCGCCAGAACUACAGAAAUGUAGUUGACGAGGAGGUGGUUUAUCGAAUAUUCGUCGCAUGCCUCCAAA [A42U U55A G60U G63C],< 1e-05
9,AUAAAAGCGCCAGAACUACAGAAAUGUAGUUGACGAGGAGCAUGUUUAUCGAAUUUUCAGCGGAUGCCUCCAAA [G41C G43U G59A],< 1e-05
10,AUAAAAGCGCCAGAACUACAGAAAUGUAGUUGACGAGGAGGAGGUUUACUGAAUUGUCGGCGGAUGCCUCCAAA [U49C C50U U56G],< 1e-05
11,AUAAAAGCGCCAGAACUACAGAAAUGUAGCUGACGAGGAGGAGGUUAAUCGAAUUUUCGGCGGAUGCCUACAAA [U30C U47A C70A],8.14e-05 ± 3.8e-05
12,AUAAAAGCGCCAGAACUACAGAAAUGUAGUUGACGAAGGGGAGGUUUAUCGAAUUUUCGGCGGAUGCCUCGAAA [G37A A39G C71G],0.000523 ± 0.00013
13,AUAAAAGCGCCAGAACUACAGAAAUGUAGUUGACGAGGAGGAGGUUUAUUGAAUUUUCGGCGGAUGCCUUAAAA [C50U C70U C71A],0.000152 ± 4e-05
14,AUAAAAGCGCCAGUACUACAGAAAUGUAGUUCACGAGGAGGAGGUUUAUCGUAUUUUCGGCGGAUGCCUCCAAA [A14U G32C A52U],< 1e-05
15,AUAAAAGCGCCAGAACUACAGAAAUGUAGUUGCCGAGGAGGAGGUUUAUCGAAUUUUCGGCGGAUGCGUUCAAA [A33C C68G C70U],< 1e-05
16,AUAAAAGCGCCAGAACUACAGAAAUGUAGGUGACAAGGAGGACGUUUAUCGAAUUUUCGGCGGAUGCCUCCAAA [U30G G35A G43C],< 1e-05

# Variants of: B1
# Test: self-cleavage kobs at 10000 uM GlcN6P; higher = faster cleavage; RNA array
# Conditions: with glucosamine-6-phosphate
# In short: as §1
row,Variant,self-cleavage kobs at 10000 uM GlcN6P [s⁻¹]
1,AUAAAAGCUCCAGAACUACAGAAAUGUAGAUGACGAGAACGAGGUUUAUCGAAUUAUCGGCGGAUGCCUACAAA [G9U U30A G38A G40C U56A C70A],< 1e-05
2,AUAAAAGCGCCAGAACUACAGAAAUGUAGUUAACGAGGAGGAGGUUUAUCGAAUUUUCGGCGGAUGCCCCCAAA [G32A U69C],0.000717 ± 0.00016
3,AUAAACGCGCCAGAACUACAGAAAUGUAGUAGACGAGGAGGAGGUUUCUCGAAUUUUCGGCGGAUGCCUCCAAA [A6C U31A A48C],< 1e-05
4,AUAAAAGCGCCAGAACUACAGAAAUGUAGAUGACGAGGAGGAGGUUCAUCGAAUUUUCGGCGGAUGCCUCCAAA [U30A U47C],0.000396 ± 9.1e-05

# — the supplement of paper PMC7125110
